According to US20160368965A1 (IMMATICS BIOTECHNOLOGIES, published 2016):

Molecular target: T1, HLA-A*02:01 (human)
T1 construct: the tested peptide takes its place; also called peptide-receptive MHC molecules; MHC class I
Test: UV-ligand exchange, anti-β2m ELISA; grade of peptide exchange yield
Text: Candidate peptides for T cell based therapies according to the present invention were further tested for their MHC binding capacity (affinity). The individual peptide-MHC complexes were produced by UV-ligand exchange, where a UV-sensitive peptide is cleaved upon UV-irradiation, and exchanged with the peptide of interest as analyzed. Only peptide candidates that can effectively bind and stabilize the peptide-receptive MHC molecules prevent dissociation of the MHC complexes. To determine the yield of the exchange reaction, an ELISA was performed based on the detection of the light chain (β2m) of stabilized MHC complexes. The assay was performed as generally described in Rodenko et al. (Rodenko et al., 2006).
96 well MAXISorp plates (NUNC) were coated over night with 2 ug/ml streptavidin in PBS at room temperature, washed 4× and blocked for 1h at 37° C. in 2% BSA containing blocking buffer. Refolded HLA-A*02:01/MLA-001 monomers served as standards, covering the range of 15-500 ng/ml. Peptide-MHC monomers of the UV-exchange reaction were diluted 100 fold in blocking buffer. Samples were incubated for 1 h at 37° C., washed four times, incubated with 2 ug/ml HRP conjugated anti-β2m for 1h at 37° C., washed again and detected with TMB solution that is stopped with […]. Absorption was measured at 450 nm. […]

B1: SLTEQVHSL (SEQ ID NO: 141) (peptide)
peptide: SLTEQVHSL
peptide exchange yield: 50 to 75%
